*1 amine or outer side, *2 acyl side, *3 side chain or, on linkers, in order; H or OH if unused. Glutaryl = O=C(CCCC(=O)[*:2])[*:1]; Suc = O=C(CCC(=O)[*:2])[*:1]
Assays:
[1] = target: Heat shock protein 90 (Hsp90), protein immobilised on the FEB chip (UniProt P07900); experiment: field effect biosensing
[2] = target: Heat shock protein 90 (Hsp90), protein immobilised on the FEB chip (UniProt P07900); experiment: field effect biosensing; remark: listed apart in the source

Molecule | KD in the presence of CHP-028 (competitive binding) [1] [µM] | Kd [2] [µM]
Cell division cycle 37 (Cdc37), analyte protein in FEB (from UniProt Q16543 1-378) (natural protein) | 2.78 | –
Glutaryl-KTGDEKKGGYGRKKRRQRRR-NH2 (SMILES C[C@@H](O)[C@H](NC(=O)[C@H](CCCCN)NC(=O)CCCC(=O)O)C(=O)NCC(=O)N[C@@H](CC(=O)O)C(=O)N[C@@H](CCC(=O)O)C(=O)N[C@@H](CCCCN)C(=O)N[C@@H](CCCCN)C(=O)NCC(=O)NCC(=O)N[C@@H](Cc1ccc(O)cc1)C(=O)NCC(=O)N[C@@H](CCCNC(=N)N)C(=O)N[C@@H](CCCCN)C(=O)N[C@@H](CCCCN)C(=O)N[C@@H](CCCNC(=N)N)C(=O)N[C@@H](CCCNC(=N)N)C(=O)N[C@@H](CCC(N)=O)C(=O)N[C@@H](CCCNC(=N)N)C(=O)N[C@@H](CCCNC(=N)N)C(=O)N[C@@H](CCCNC(=N)N)C(N)=O) [CHP-027, pre-cyclic peptidomimetic CO-(CH2)3-CO2H KTGDEK-K-GG-…-NH2] | – | 30
Suc-KTGDEKKGGYGRKKRRQRRR-NH2 (SMILES C[C@@H](O)[C@H](NC(=O)[C@H](CCCCN)NC(=O)CCC(=O)O)C(=O)NCC(=O)N[C@@H](CC(=O)O)C(=O)N[C@@H](CCC(=O)O)C(=O)N[C@@H](CCCCN)C(=O)N[C@@H](CCCCN)C(=O)NCC(=O)NCC(=O)N[C@@H](Cc1ccc(O)cc1)C(=O)NCC(=O)N[C@@H](CCCNC(=N)N)C(=O)N[C@@H](CCCCN)C(=O)N[C@@H](CCCCN)C(=O)N[C@@H](CCCNC(=N)N)C(=O)N[C@@H](CCCNC(=N)N)C(=O)N[C@@H](CCC(N)=O)C(=O)N[C@@H](CCCNC(=N)N)C(=O)N[C@@H](CCCNC(=N)N)C(=O)N[C@@H](CCCNC(=N)N)C(N)=O) [CHP-028, pre-cyclic peptidomimetic CO-(CH2)2-CO2H KTGDEK-K-GG-…-NH2] | – | 16.4
Ac-KTGDEKKGGYGRKKRRQRRR-NH2 [CHP-026, linear peptide CH3-CO-KTGDEK-K-GG-…-NH2] | – | 342

— PMC10250827
